{"source": "paper PMC7669869", "about": "(2020)", "key": {"JT006": {"target": "JT006 (UniProt Q15848 155-161, Tyr159 was replaced with Ser | Asp was applied to substitute Ala161, unnatural amino acid Nva incorporated (position not given); FITC labeled peptide in the cell imaging)", "test": "FRET; table row labelled IC50, legend says Kd"}, "ADP355": {"target": "ADP355", "test": "FRET; table row labelled IC50, legend says Kd"}}}
{"binder": "AdipoR2 (overexpressed in HEK293 cells) (receptor) MNEPTENRLGCSRTPEPDIRLRKGHQLDGTRRGDNDSHQGDLEPILEASVLSSHHKKSSEEHEYSDEAPQEDEGFMGMSPLLQAHHAMEKMEEFVCKVWEGRWRVIPHDVLPDWLKDNDFLLHGHRPPMPSFRACFKSIFRIHTETGNIWTHLLGCVFFLCLGIFYMFRPNISFVAPLQEKVVFGLFFLGAILCLSFSWLFHTVYCHSEGVSRLFSKLDYSGIALLIMGSFVPWLYYSFYCNPQPCFIYLIVICVLGIAAIIVSQWDMFATPQYRGVRAGVFLGLGLSGIIPTLHYVISEGFLKAATIGQIGWLMLMASLYITGAALYAARIPERFFPGKCDIWFHSHQLFHIFVVAGAFVHFHGVSNLQEFRFMIGGGCSEEDAL", "values": [{"measurement": "Kd", "setting": "JT006", "value": 1.2, "unit": "µM"}]}
{"binder": "AdipoR1 (overexpressed in HEK293 cells) (receptor) MSSHKGSVVAQGNGAPASNREADTVELAELGPLLEEKGKRVIANPPKAEEEQTCPVPQEEEEEVRVLTLPLQAHHAMEKMEEFVYKVWEGRWRVIPYDVLPDWLKDNDYLLHGHRPPMPSFRACFKSIFRIHTETGNIWTHLLGFVLFLFLGILTMLRPNMYFMAPLQEKVVFGMFFLGAVLCLSFSWLFHTVYCHSEKVSRTFSKLDYSGIALLIMGSFVPWLYYSFYCSPQPRLIYLSIVCVLGISAIIVAQWDRFATPKHRQTRAGVFLGLGLSGVVPTMHFTIAEGFVKATTVGQMGWFFLMAVMYITGAGLYAARIPERFFPGKFDIWFQSHQIFHVLVVAAAFVHFYGVSNLQEFRYGLEGGCTDDTLL", "values": [{"measurement": "Kd", "setting": "ADP355", "value": 1.1, "unit": "µM"}, {"measurement": "Kd", "setting": "JT006", "value": 1.4, "unit": "µM"}]}
